According to a protein production outcome set (Wang et al. 2014):

Assay: label from the status in PepcDB records
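Also: failed if final PepcDB status was selected cloned or expressed and not failed if soluble or beyond.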

Sequence	protein production
SESGFTSKDTYLSHFNPRDYLEKYYKFGSRHSAESQILKHLLKNLFKIFCLDGVKGDLLIDIGSGPTIYQLLSACESFKEIVVTDYSDQNLQELEKWLKKEPEAFDWSPVVTYVCDLEGNRVKGPEKEEKLRQAVKQVLKCDVTQSQPLGAVPLPPADCVLSTLCLDAACPDLPTYCRALRNLGSLLKPGGFLVIMDALKSSYYMIGEQKFSSLPLGREAVEAAVKEAGYTIEWFEVISQSYSSTMANNEGLFSLVARKLSRPL	failed
MVKVTYDIPTCEDYCALRINAGMSPKTREAAEKGLPNALFTVTLYDKDRLIGMGRVIGDGGTVFQIVDIAVSKSYQGQDYGSLIMEHIMKYIKNVSVESAYVSLIADYPADKLYAKFGFMPTEPDSGGMYIKY	not failed
MASIEQVAELISSLEQATLMAQQIGTTVGQNQLLQISSLRIAHQRLSAFLASIPTAEAEKSFSSVEPMQLGEEEKGEAEPAEEERYSAIEKVEEKMRECFIRNKRLKRPLSPSSAVVETSATEERSGRDYGFDSDPHATKLRALDLIYQFHA	failed
MEEKKSSGMFAVFAALGANVLVAISKFIGFGLSGSAAMLNESIHSVVDCGNQILLLFGDRRSRQASTNLHQFGEARAKYFFSMIVATFLFFGGGVIGVMEAYDKLVHPAHSVENAGIVIGILLIGMAIEGSSLRVAFKEISELNTEKLPIFKFLHESRHSEILVIFAEDLCAIIGLLLALLGTVLTMVTGNPIFDAISGLLIGFLLMAAAIFLTREFYSLIVGERVTDSDLEKILTAFDRPEVERVINVKTVHLGPTEILIAAKIDLVSKLVLEDYEIINQIEAEIRKKISDKKCYIYIEIDEFVQGYVQSSDL	failed
FLSTRDNVDELRKIENKSSFVSADNMPEYVKGAFISMEDERFYNHHGFDLKGTTRALFSTISDRDVQGGSTITQQVVKNYFYDNDRSFTRKVKELFVAHRVEKQYNKNEILSFYLNNIYFGDNQYTLEGAANHYFGTTVNKNSTTMSHITVLQSAILASKVNAPSVYNINN	failed
MSGPEAEQQSVVLYDIEDKPPLGKAIPLGIQHVLAMFLGNVAPPLILAGAVGSVTGETTFLVQMALIVAGIATIVQAYPVGPVGARLPVVMGTSFAFLGPLIGIGNQFGIAAVFGASLLAAPVEVIMGVSFDRFRRFFPPLVTGIVVMLIGLTLIPTGMNYAAGASAGPSAEGYGSFVNLGLAGLVLIVTVGLNQFFEGFLRVISVFVGIIVGYLAALALGVVDLSAVAAAGWVTVPVPLKYGLAFEPSAVVTVAFLYIITGMETIGDISGTVSATGRNATREEIRGGLVADGVMSVFGAVFNALPNTSFSQNVGLVNFTGVASRYVAGIGGVVLLALGFIPKVGAVVSAMPDAVLGGGALILFAMIFSSGARLITQNVELDHRNSTILAMSMALGLGVAFRPEILQNFPSEVQTLFGSALVTGGMAALILNIVFPGGSVGTGPTEYTAGLEPDPVETGAGAPPVDDD	failed
MALAVTSSSTAISGSSFSRSGASSESKALQICSIRLSDRTHLSQRRYSMKPLNAESHSRSESWVTRASTLIAPEVEEKGGEVEDFEQLAKKLEDASPLEIMDKALERFGDQIAIAFSGAEDVALIEYARLTGKPFRVFSLDTGRLNPETYRLFDAVEKQYGIRIEYMFPDAVEVQALVRNKGLFSFYEDGHQECCRVRKVRPLRRALKGLKAWITGQRKDQSPGTRSEIPIVQVDPVFEGLDGGVGSLVKWNPLANVEGADVWNFLRTMDVPVNALHAQGYVSIGCEPCTRPVLPGQHEREGRWWWEDAKAKECGLHKGNIKEEDGAADSKPAAVQEIFESNNVVALSKGGVENLLKLENRKEAWLVVLYAPWCPFCQAMEASYIELAEKLAGKGVKVAKFRADGEQKEFAKQELQLGSFPTILLFPKRAPRAIKYPSEHRDVDSLMSFVNLLR	failed
MEATKERMEKDQKKRVVTNEAGKAEDNTIRTIIRESIVEDRGSNDDDGNKDNDHGASKPEDILAFSRTVRKIDSSLE	failed
EKGDWAQFGRYAEANKTVKVPSNVVFMGNSITDGWWPADSTFFIRNNFVDRGISGQTTSEMLVRFRQDVINLKPKAVVILAGINDIAHNNGVIALENVFGNLVSMAELAKANHIKVIFCSVLPAYDFPWRPGMQPADKVIQLNKWIKEYADKNGLTYVDYHSAMKDERNGLPANLSKDGVHPTLEGYKIMEKIVLEAIHKTVK	not failed
PRLLCTATKQKNSGQNLEEDMGQSEQKADPPATEKTLLEEKVKLEEQLKETVEKYKRALADTENLRQRSQKLVEEAKLYGIQAFCKDLLEVADVLEKATQCVPKEEIKDDNPHLKNLYEGLVMTEVQIQKVFTKHGLLKLNPVGAKFDPYEHEALFHTPVEGKEPGTVALVSKVGYKLHGRTLRPALVGVVKEA	failed
MYSSGNPTNIANPIKDASVQIDLKTVGGKLTLYQTTLCERISGDNIDLGLDLGSQSFLPTYNKNDIQLICCQADASVLWLVPDTVVTRFIQSLDWDTDMDITFTWVLNRDRPKGKETVKYERSVDPLDLPKRSDIQMVLNGSMDGFRVHNLYPKFFRVTGSGDVRSFEDQTDEVSADILINHANFKWWWSFHNLKASENISACEGMDGPVAIIMSEETPPPVGRFIRLQCSDLRMRIPYENLPSCDRLIAICEDLYAARAEGELGVEEVLYWTLVKIYRSPHMLLEYTKLDYDA	failed
MEEKNGSSEVEIGEKDETKKQSKDLEFLSCMMQPKTADSDPHYIGIRRILLHRKADSGVISRRYDWRCNGKGYVAYRNFISKPRKWENLRTPSLLSSPGNSGRWLPSPSPLSHQFEAESFTSSRDLRSVNQVSSRRASFSSSLSDGDNSYRRGGVEHAYSFVGMHCIFDQCKSSVTVLKFGHMSSDILAYGASDGSLTVCSLLEEPSVLKQLTGHSKDVTDFDFSSNNQYIASSSLDKTIRVWELSRGVCIRVIYGISPQYCIRFHPVNNNFLSAGNANKELTVFNFSTGRIIKKLLFEDEVTSMDHDHTGQIIFCGDGQGTVYSVSMDSHTGSLSRSHRHRTNHKSPVTTVKYRSFSLLASGPVLLTCTQDGNLSFFSVALQIKGYLTLRCSLKLAPRIHRIQASFCPLLSLEKGEYIVAGSEDSNVYFYDLTKPKHTCVNKLQGHRFPVMCVAWNHGENLLASSDFYGVVIVWKRAKTSS	failed
MNLLNLFTYVIPIAICIILPIFIIVTHFQIKSLNKAVTSFNKGDRSNALEILSKLVKSPIKNVKANAYITRERIYFYSRDFELSLRDLLQAIKLRPKTINDVYSFALSYHILGEPERALKYFLRAVELQPNVGISYENLAWFYYLTGKYDKAIENFEKAISMGSTNSVYRSLGITYAKIGDYKKSEEYLKKALDAEPEKPSTHIYFSYLKRKTNDIKLAKEYALKAIELNKNNFDGYKNLAEVNLAEDDYDGFYKNLEIFLEKINFVTNGEDFNDEVYDKVKDNEKFKELIAKTKVIKFKDLGIEIDDKKILNGKFLV	failed
MAVSLPNSFLQISPCVPSLQLRKPVMAAVKGGKQSVRRSSNTVVQITCRKKELHPEFHEDAKVYCNGELVMTTGGTKKEYVVDVWSGNHPFYLGNRSALMVDADQVEKFRKRFAGLSEIMEIPVLKGEIIMPTKKSKGPKGKKK	failed
MSPTVLPATQADFPKIVDVLVEAFANDPTFLRWIPQPDPGSAKLRALFELQIEKQYAVAGNIDVARDSEGEIVGVALWDRPDGNHSAKDQAAMLPRLVSIFGIKAAQVAWTDLSSARFHPKFPHWYLYTVATSSSARGTGVGSALLNHGIARAGDEAIYLEATSTRAAQLYNRLGFVPLGYIPSDDDGTPELAMWKPPAMPTV	not failed
MRLVERHIVKTNHQFYKEIDDLAWRSKNLYNYVNYLVRQSFIFDGKYLNNAAIFHLVKHHESYTALPRKVSNQVLMVLHRNWKSFFETHKAYKQNPSKFKGCPKLPKYKNKEKGRNIVIYELGAISKPLLKQGVIKLSQTEIQFPTKASNIQQVRLIPQCGQYVVEVVYLQDATPQQLNPDWVAGIDIGLDNLAALTSNKPGFKPVLVNGRPLKAINQQYNKAKARLQSQLKGNAKTSRRIQALTCKRNNRIDNYLHNASRWIINHLASAGIGTLVIGKNDQWKQEINLGTTTNQNFVSIPHARFIEQLKYKAELVAMTVLINEESYTSASSFLDLDPIPVYQEGVKHSFSGKRIKRAWYQSANGRFIHADINASLNITRKVVPAAFSLGIAGIAVCPSRITPGKVAI	failed
MSEVVKKFMYLNRKAPYGTIYAWEALEVVLIGAAFDQDVCVLFLDDGVYQLTRGQDTKGIGMKNFSPTYRTLGDYEVRRIYVDRDSLEARGLTQDDLVEIAFEDMETEEEFDNIVEVIDSARVSELMNESDAVFSF	not failed
MDYSQYHVEQTQEITELVTRTFSKSEGVDEGTLIGALIKDLFATTDSDDMFIFVAKDNGKIVGSIFFTRLTFEIDTTAFLLCPVVIDTEYQNKGVGQTLINHGLEVLKQEGVELVFTYGEPKFYERVGFEIVSEEQFKSPIPLSYLYSWLAQSLNDEVLTYIPGRSKCVAALNNLRLW	failed
MLDPARSFDIIGDVHGCALTLERLLDALGYKRVAGVWRHPRRQALFLGDIVDRGPRIREALHIVHDMVEAGQAFCIMGNHEYNALGWVTPALPGSGKAYVREHTPRHARLIDETLTQFAQHPGDWHDFVNWFYQLPLFIDAGRFRLVHACWDPRLIEPLRQQYPDGRIDEHFIQASAVSGSFADTVCNRLLRGTDMRLPDGLTLTGGDGLTRAFFRTKFWEEDPKTYGDIVFQPDALPEEVASTPLSHSQKNALLRYDEDQPMLFVGHYWRSGRPAPIRANLACLDYSAVLYGKLVAYRLDDETRIDPHKFVWVDVDRPQANQLEHHHHHH	not failed
MAHGMPTQGKVTISVDEYSSNPTQALTHYNINQSRFQPPHVHMVDPISYDTPKPGGHTRFVCVSDTHSRTDGIQMPYGDVLLHTGDFTELGLPSEVKKFNDWLGSLPYEFKVVIAGNHELTFDKDFMTELVKQDYYRFPSVSKLKPKDFDNVQSLLTNCVYLQDSDVTVKGFRIYGTPWTPWFNGWGFNLPRGQSLLDKWNLIPEGVDILMTHGPPLGFRDWVPKELQRVGCVELLNTVQRRVRPKLHVFGGIHEGYGIMTDGYTTFINASTCTVSFQPTNPPIVFDLPNPTSS	failed
AKGKNVIVLHLESFQQFLIDYKLNIDGKQYEVTPFLNSLYHSKETFAFSNFFHQVKAGKTSDAETLMETSLFGLNQGSFFVQYGGDNTQQAAPHILKDTNNYSSAVFHGNIGTFWNRNNAYKQLGYQHFFDQSYMSKMTKDNSFQYGLNDKVMFADSIKYLEHMQQPFYTKFITVSNHYPYQSLDGDDTGFPLAKTEDKTINGYFATANYLDAAIKDFFDYLKASGLYKNSIIVMYGDHYGIANSRNTDLAPLLGKDSQTWTEYNNAMLQRVPYMIHVPGTDKGFISNTYGGEVDALPTLLHLLGIDNKNYIELGQDLLSPNNKQLVAFRSEGNYITPNYTSYSGRVYDTKTGV	failed
MMEKIMEYLQLSDEVVDDGEAPRVEEFLGEGKSFYENFSLRGIRVNRVEPGFISCSFKVPLRLTDRDKNLANGAIANLVDEVGGALVHGEGLPMSVSVDMSIAFLSKAKLGEELEITSRLLGERGGYKGTIVVVRNKMTGEIIAEGRHSMFGRQASKL	failed
MEPMQVVKQRRDAALNALVSGVPFIRFLNITFDRRGDELTGVLNFDDKLIGNPFLPAIHGGVTAAFLEVTAVITLSWAHLFERIESGDLAPEDILTDENMRFPKTIDFTIDYLRSGLPRDAYARAYISRAGRRYASVRVEAWQDHHDKLYAQGTGHFLMPLEHHHHHH	failed
